# Patent publication US12329806B2, “Compound for modulating rlr, tlr, oas and/or oncostatin m pathways, use thereof for preparing a medicine, composition, method for modulating said pathways and method of treatment” (Instituto Butantan, priority 2018, dated 2025)
# B1: Amblyomin-X: recombinant Kunitz type protein identified in a cDNA library of Amblyomma sculptum tick salivary glands (protein)
# chain: MRQLAVLALVIFTGMCVESQSANSKAVCNLPKLAGDETCSNKTEIRWYYNGTACEAFIFKGCGGNDNNFDRVDDCQRLCEEQTHFHFESPKLICFKVQDYWILNDIMKKNLTGISLKSEEEDADSGEID
# modifications: Amblyomin-X
# notes: recombinant Kunitz type protein identified in a cDNA library of Amblyomma sculptum tick salivary glands
# Tested on: Equine melanoma tumors
# Test: RNA-Seq transcriptomic analysis (DEGs, EdgeR) of treated equine melanoma tumors excised 6 h and 12 h after injection
# Assay type: in vivo, Equus caballus
# Description: Equine melanoma tumors were used in experiments with the administration of the compound of the invention, for transcriptomic analysis at different points in time. This translational experiment was carried out at Sao Joaquim Farm (SP) and the samples were transported to the Instituto Butantan, in the city of Sao Paulo. The experiment was designed with non-treated control samples at 0 h (PBS) and the treated tumors were excised 6 h and 12 h after the injection of 1 mg of polypeptide per kg of tumor. For each time point, two tumors were removed from three different animals, producing six tumors per time point. All 18 cDNA libraries were prepared following Illumina's TruSeq® RNA Preparation Kit Kits v2 protocol, and then sequenced using HiSeq 1500 Illumina technology, generating 2×100 bp chain-specific paired readings. The raw sequencing readings had the contaminants removed with bowtie2 2.2.5, and then trimmomatic was used for quality control of the sequences, to cut and remove readings with regions of low complexity and enriched with homopolymers, poly-A/T/N tails, low quality adapter strings and bases, with the fastq-mcf 1.04.662 software. The readings were filtered if more than 90% of the readings correspond to regions of homopolymer or of low complexity. Subsequently, cut if the average quality score was less than 25 in a window size equal to 15. After cutting, all readings less than 40 bp were discarded.
# Total RNA was isolated from cells grown with Trizol (Ambion, Life Technologies) and purified with a Mini RNAspin kit (GE Healthcare) according to the manufacturer's instructions, with prolonged treatment with DNase I for 1 h.
# RNA quality was assessed with an Agilent 2100 Bioanalyzer RNA Pico assay. RNA was quantified using the Rib-Green Quant-iT and RNA reagent kit (Invitrogen, Life Technologies). The messenger RNA (mRNA) was isolated and used to prepare the complementary DNA (cDNA) libraries following the instructions of the TruSeq RNA Sample Prep Kit V2 (Illumina, San Diego, Calif.). Briefly, the mRNA was isolated with oligo-dT and purified. Then, the mRNA was fragmented by heating to 94° C. (4 min) in fragmentation buffer. The double-stranded cDNA was synthesized, repaired at the end and tail A. The sequencing adapters were then attached to the cDNA fragments, according to the manufacturer's protocol. The cDNA fragments were enriched after 15 rounds of PCR amplification. The quality control of the library was assessed by size distribution of the cDNA libraries measured using 2100 Bioanalyzer with DNA1000 assay (Agilent Technologies) and a StepOnePlus real-time PCR system from ABI were used to quantify the sample library before sequencing. The cDNA library was sequenced on the Illumina HiSeq 1500 System, in a final flow cell paired with Rapid in a 200 pair strategy of 2-101 bp pairing strategy.
# The in-silico analysis of RNA-Seq comprises several quality steps and transcriptomic quantification algorithms that are understood in the present invention as “pipeline”. (FIG. 19). The quality check was performed using FastQC3. Hisat214 was used to align readings against the horse's reference genome (Equus caballus) (annotation version 89). To map and quantify transcriptions, the feature Counts was used, resulting in a table of genetic IDs versus samples with raw reading counts. Then, differentially expressed genes (DEGs) were calculated using the EdgeR package. Genes with less than one count per million (CPM) were filtered out. The DEGs were calculated by crossing the sample values of a) 6 h after treatment (6 h)×control (0 h); b) 12 h after treatment (12 h)×control; and also, c) 12 h×6 h. DEGs are defined as an absolute value of log 2 fold change between two groups (LFC)>1 and false discovery rate (FDR)<0.05. […]
# [1] = in vivo administration, RNA-Seq
# [2] = treated equine melanoma tumors, RNA-Seq
molecule,measurement,setting,value
B1,"logFC6, gene IFIH1","RNA-seq, 6 h after treatment",0.851
same,"logFC6, gene IFIT1","RNA-seq, 6 h after treatment",2.574
same,"logFC6, gene IL1B","RNA-seq, 6 h after treatment",4.309
same,"logFC6, gene IL1RN","RNA-seq, 6 h after treatment",2.823
same,"logFC6, gene IL13RA1","RNA-seq, 6 h after treatment",1.408
same,"logFC6, gene IRF9","RNA-seq, 6 h after treatment",1.136
same,"logFC6, gene ITGA1","RNA-seq, 6 h after treatment",1.348
same,"logFC6, gene MYH1","RNA-seq, 6 h after treatment",−8.4
same,"logFC6, gene MYH3","RNA-seq, 6 h after treatment",−3.643
same,"logFC6, gene MYL2","RNA-seq, 6 h after treatment",−8.697
same,"logFC6, gene MYLPF","RNA-seq, 6 h after treatment",−5.872
same,"logFC6, gene NTNG1","RNA-seq, 6 h after treatment",−1.959
same,"logFC6, gene OAS2","RNA-seq, 6 h after treatment",1.463
same,"logFC6, gene PARP9","RNA-seq, 6 h after treatment",1.816
same,"logFC6, gene PER1","RNA-seq, 6 h after treatment",−1.474
same,"logFC6, gene PIK3R6","RNA-seq, 6 h after treatment",−1.277
same,"logFC6, gene RUNX1","RNA-seq, 6 h after treatment",1.723
same,"logFC6, gene SAA1","RNA-seq, 6 h after treatment",3.456
same,"logFC6, gene SELP","RNA-seq, 6 h after treatment",2.596
same,"logFC6, gene SLPI","RNA-seq, 6 h after treatment",3.009
same,"logFC6, gene SOCS3","RNA-seq, 6 h after treatment",2.979
same,"logFC6, gene STAT1","RNA-seq, 6 h after treatment",1.085
same,"logFC6, gene TAT","RNA-seq, 6 h after treatment",5.292
same,"logFC6, gene TEAD4","RNA-seq, 6 h after treatment",1.685
same,"logFC6, gene THBS1","RNA-seq, 6 h after treatment",1.819
same,"logFC6, gene TLR2","RNA-seq, 6 h after treatment",1.5586
same,"logFC6, gene TREM1","RNA-seq, 6 h after treatment",5.551
same,"logFC12, gene ACTN1","RNA-seq, 12 h after treatment",1.006
same,"logFC12, gene BCL3","RNA-seq, 12 h after treatment",1.709
same,"logFC12, gene BIRC3","RNA-seq, 12 h after treatment",0.9146
same,"logFC12, gene CAD","RNA-seq, 12 h after treatment",1.028
same,"logFC12, gene CCL2","RNA-seq, 12 h after treatment",3.517
same,"logFC12, gene CDO1","RNA-seq, 12 h after treatment",−2.408
same,"logFC12, gene CTSL","RNA-seq, 12 h after treatment",1.385
same,"logFC12, gene CXCL6","RNA-seq, 12 h after treatment",3.417
same,"logFC12, gene DDX58","RNA-seq, 12 h after treatment",1.76
same,"logFC12, gene F12","RNA-seq, 12 h after treatment",3.104
same,"logFC12, gene FOSL1","RNA-seq, 12 h after treatment",4.028
same,"logFC12, gene FSCN1","RNA-seq, 12 h after treatment",1.831
same,"logFC12, gene HMOX1","RNA-seq, 12 h after treatment",1.117
same,"logFC12, gene HSPA6","RNA-seq, 12 h after treatment",4.55
same,"logFC12, gene IFI35","RNA-seq, 12 h after treatment",1.639
same,"logFC12, gene IFIH1","RNA-seq, 12 h after treatment",1.823
same,"logFC12, gene IFIT1","RNA-seq, 12 h after treatment",2.655
same,"logFC12, gene IL1B","RNA-seq, 12 h after treatment",3.152
same,"logFC12, gene IL1RN","RNA-seq, 12 h after treatment",2.805
same,"logFC12, gene IL13RA1","RNA-seq, 12 h after treatment",1.28
same,"logFC12, gene IRF9","RNA-seq, 12 h after treatment",1.462
same,"logFC12, gene ITGA1","RNA-seq, 12 h after treatment",1.094
same,"logFC12, gene MYH1","RNA-seq, 12 h after treatment",−8.31
same,"logFC12, gene MYH3","RNA-seq, 12 h after treatment",3.004
same,"logFC12, gene MYL2","RNA-seq, 12 h after treatment",−7.917
same,"logFC12, gene MYLPF","RNA-seq, 12 h after treatment",−5.428
same,"logFC12, gene NTNG1","RNA-seq, 12 h after treatment",−2.943
same,"logFC12, gene OAS2","RNA-seq, 12 h after treatment",2.491
same,"logFC12, gene PARP9","RNA-seq, 12 h after treatment",2.109
same,"logFC12, gene PER1","RNA-seq, 12 h after treatment",−1.139
same,"logFC12, gene PIK3R6","RNA-seq, 12 h after treatment",−1.356
same,"logFC12, gene RUNX1","RNA-seq, 12 h after treatment",1.443
same,"logFC12, gene SAA1","RNA-seq, 12 h after treatment",3.902
same,"logFC12, gene SELP","RNA-seq, 12 h after treatment",2.395
same,"logFC12, gene SLPI","RNA-seq, 12 h after treatment",3.051
same,"logFC12, gene SOCS3","RNA-seq, 12 h after treatment",2.423
same,"logFC12, gene STAT1","RNA-seq, 12 h after treatment",1.267
same,"logFC12, gene TAT","RNA-seq, 12 h after treatment",5.521
same,"logFC12, gene TEAD4","RNA-seq, 12 h after treatment",1.949
same,"logFC12, gene THBS1","RNA-seq, 12 h after treatment",0.8749
same,"logFC12, gene TLR2","RNA-seq, 12 h after treatment",1.839
same,"logFC12, gene TREM1","RNA-seq, 12 h after treatment",5.559
same,LFC SELE (6 h×0 h),"e-selectin (SELE) gene, log2 fold change, 6 h after treatment vs control 0 h, RNA-Seq",2.33
same,LFC SELE (12 h×0 h),"e-selectin (SELE) gene, log2 fold change, 12 h after treatment vs control 0 h, RNA-Seq",1.78
same,logFC6 BATF3,"gene BATF3, RNA-seq, 6 hours after treatment",3.137
same,logFC12 BATF3,"gene BATF3, RNA-seq, 12 hours after treatment",2.91
same,logFC6 CAV3,"gene CAV3, RNA-seq, 6 hours after treatment",−3.0363
same,logFC12 CAV3,"gene CAV3, RNA-seq, 12 hours after treatment",−6.6813
same,logFC6 CCR7,"gene CCR7, RNA-seq, 6 hours after treatment",2.652
same,logFC12 CCR7,"gene CCR7, RNA-seq, 12 hours after treatment",2.359
same,logFC6 CDH15,"gene CDH15, RNA-seq, 6 hours after treatment",−2.616
same,logFC12 CDH15,"gene CDH15, RNA-seq, 12 hours after treatment",−1.702
same,logFC6 EIF2AK2,"gene EIF2AK2, RNA-seq, 6 hours after treatment",2.4
same,logFC12 EIF2AK2,"gene EIF2AK2, RNA-seq, 12 hours after treatment",2.959
same,logFC6 ETV6,"gene ETV6, RNA-seq, 6 hours after treatment",1.795
same,logFC12 ETV6,"gene ETV6, RNA-seq, 12 hours after treatment",1.871
same,logFC6 IL7R,"gene IL7R, RNA-seq, 6 hours after treatment",2.532
same,logFC12 IL7R,"gene IL7R, RNA-seq, 12 hours after treatment",2.227
same,logFC6 IL18RAP,"gene IL18RAP, RNA-seq, 6 hours after treatment",2.817
same,logFC12 IL18RAP,"gene IL18RAP, RNA-seq, 12 hours after treatment",2.593
same,logFC6 MYLK2,"gene MYLK2, RNA-seq, 6 hours after treatment",−5.152
same,logFC12 MYLK2,"gene MYLK2, RNA-seq, 12 hours after treatment",−5.672
same,logFC6 NECTIN3,"gene NECTIN3, RNA-seq, 6 hours after treatment",1.287
same,logFC12 NECTIN3,"gene NECTIN3, RNA-seq, 12 hours after treatment",1.113
same,logFC6 NLRC4,"gene NLRC4, RNA-seq, 6 hours after treatment",5.503
same,logFC12 NLRC4,"gene NLRC4, RNA-seq, 12 hours after treatment",5.687
same,logFC6 NLRP12,"gene NLRP12, RNA-seq, 6 hours after treatment",3.4
same,logFC12 NLRP12,"gene NLRP12, RNA-seq, 12 hours after treatment",2.297
same,logFC6 OAS3,"gene OAS3, RNA-seq, 6 hours after treatment",1.716
same,logFC12 OAS3,"gene OAS3, RNA-seq, 12 hours after treatment",2.112
same,logFC6 PRKCQ,"gene PRKCQ, RNA-seq, 6 hours after treatment",−1.531
same,logFC12 PRKCQ,"gene PRKCQ, RNA-seq, 12 hours after treatment",−3.021
same,DEG modulation of ACTA1 and ACTN2,[1],high negative regulation
same,DEG modulation of ACTN1 and ACTR3,[1],positive regulation
same,DEG modulation of TUBB and TUBB6 (Tubulin family),[1],positive regulation
same,"expression of Interferons (type 1 interferon, IFN alpha and IFN beta)",[2],does not lead to the detectable expression
same,expression of the NOXA gene (PMAIP1),[2],did not induce the detectable expression
